The record followed here is US11472855, “RNA-binding protein” (Panitch Schwarze Belisario & Nadel LLP).

In data set [1] the test system is hPUF_MT(R5:A_13R)3(R6:C_13R)3 Y13R in the R6:C repeats. The experiment in a line: EMSA. The conditions noted are these: 13Y about 3 times greater. In general terms: A gel shift assay detects complexes by their altered migration in electrophoresis.
Data set [2] deals with hPUF_MT(R5:A_13R)3(R6:U_13R)3 Y13R in the R6 repeats. Kind of data set: EMSA. The conditions noted are these: 13Y at least 30 times greater.
The test system of data set [3] is hPUF_MT(R5:G_13R)(R5:G_13Y)2(R6:U_13Y)3 R13Y in the second and third R5 repeats (Homo sapiens). Kind of data set: EMSA. The conditions noted are these: FIG. 61; Arg>Tyr between G and U; 4 C; construct name in text appears misprinted as A/G version.
Data set [4] has as its system hPUF_MT(R5:C_13R)3(R6:U_13R)3 Y13R in the R6:U repeats. The experiment in a line: EMSA.
For data set [5], the system named is hPUF_MT(R5:A_13R)3(R6:G_13R)3 Y13R in the R6:G repeats. The experiment in a line: EMSA. The conditions noted are these: 13Y at least 30 times greater.
Data set [6] has as its system hPUF_MT(R5:G_13R)3(R6:U_13R)3 Y13R in the R6:U repeats. Kind of data set: EMSA. The conditions noted are these: text inconsistent: number 2 greater but prints Tyr>Arg.
Data set [7] has as its target T1, hPUF_MT(R5:C_13R)3(R6:U_13Y)3.
T1 chain: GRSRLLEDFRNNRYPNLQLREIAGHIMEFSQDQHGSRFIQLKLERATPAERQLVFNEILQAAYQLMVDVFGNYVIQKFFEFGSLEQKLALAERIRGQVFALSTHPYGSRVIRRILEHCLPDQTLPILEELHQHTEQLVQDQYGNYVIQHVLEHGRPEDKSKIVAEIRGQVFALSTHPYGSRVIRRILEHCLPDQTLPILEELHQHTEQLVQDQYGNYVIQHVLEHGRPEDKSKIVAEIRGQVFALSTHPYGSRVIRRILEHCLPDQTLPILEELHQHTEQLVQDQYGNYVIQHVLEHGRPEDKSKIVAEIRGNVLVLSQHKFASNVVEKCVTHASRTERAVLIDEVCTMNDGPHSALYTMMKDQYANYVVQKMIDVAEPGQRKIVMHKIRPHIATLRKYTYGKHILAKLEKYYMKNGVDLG
Kind of data set: EMSA. The conditions noted are these: label: Alexa680 at 5' and 3'.

Data set [8] has as its target T2, hPUF_MT(R7_E16R, R3→R5, R4→R6) (R7 repeat E16R).
T2 chain: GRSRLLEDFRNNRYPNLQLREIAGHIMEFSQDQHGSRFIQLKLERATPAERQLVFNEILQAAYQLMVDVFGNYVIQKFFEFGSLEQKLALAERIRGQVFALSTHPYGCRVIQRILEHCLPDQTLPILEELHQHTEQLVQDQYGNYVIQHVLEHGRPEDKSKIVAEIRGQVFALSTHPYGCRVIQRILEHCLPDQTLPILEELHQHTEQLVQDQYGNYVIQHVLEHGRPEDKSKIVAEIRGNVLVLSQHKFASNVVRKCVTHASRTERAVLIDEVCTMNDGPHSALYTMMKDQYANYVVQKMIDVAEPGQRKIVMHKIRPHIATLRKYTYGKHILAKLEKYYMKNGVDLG
Kind of data set: EMSA; binds C and U. The conditions noted are these: label: Alexa680 at 5' and 3'.

Data set [9] addresses T3, hPUF_MT(R3→R5, R4→R6).
T3 chain: T2 chain with R256E
The experiment in a line: EMSA; binds G exclusively at R7 position. The conditions noted are these: label: Alexa680 at 5' and 3'.

The target of data set [10] is T4, hPUF_MT(R7_S12N,E16Q, R3→R5, R4→R6) (R7 repeat S12N,E16Q).
T4 chain: T2 chain with S252N, R256Q
The experiment in a line: EMSA; binds U exclusively. The conditions noted are these: label: Alexa680 at 5' and 3'.

The target in data set [11] is T5, hPUF_MT(R2_N12S,Q16E, R3→R5, R4→R6) (R2 repeat N12S,Q16E).
T5 chain: T2 chain with N72S, Q76E, R256E
The experiment in a line: EMSA; binds G exclusively. The conditions noted are these: label: Alexa680 at 5' and 3'.

The target in data set [12] is T6, hPUF_MT(R2_N12S,Q16R, R3→R5, R4→R6) (R2 repeat N12S,Q16R).
T6 chain: T2 chain with N72S, Q76R, R256E
The experiment in a line: EMSA; binds C exclusively. The conditions noted are these: label: Alexa680 at 5' and 3'.

Data set [13] addresses T3, hPUF_MT(R3→R5, R4→R6). Kind of data set: EMSA; binds U exclusively at R8 position. The conditions noted are these: label: Alexa680 at 5' and 3'.
In data set [14] the target is T7, hPUF_MT(R8_N12S,Q16E, R3→R5, R4→R6) (R8 repeat N12S,Q16E).
T7 chain: T2 chain with R256E, N295S, Q299E
The experiment in a line: EMSA; binds G exclusively. The conditions noted are these: label: Alexa680 at 5' and 3'.

The target of data set [15] is T8, hPUF_MT(R5:G_13R)3(R6:C_13Y)3.
T8 chain: T1 chain with R112E, N144S, Q148R, R184E, N216S, Q220R, R256E, N288S, Q292R
Kind of data set: EMSA. The conditions noted are these: label: Alexa680 at 5' and 3'.

In data set [16] the target is T9, hPUF_MT(1-2-5-6-5-6-5-6-5-6-7-8).
T9 chain: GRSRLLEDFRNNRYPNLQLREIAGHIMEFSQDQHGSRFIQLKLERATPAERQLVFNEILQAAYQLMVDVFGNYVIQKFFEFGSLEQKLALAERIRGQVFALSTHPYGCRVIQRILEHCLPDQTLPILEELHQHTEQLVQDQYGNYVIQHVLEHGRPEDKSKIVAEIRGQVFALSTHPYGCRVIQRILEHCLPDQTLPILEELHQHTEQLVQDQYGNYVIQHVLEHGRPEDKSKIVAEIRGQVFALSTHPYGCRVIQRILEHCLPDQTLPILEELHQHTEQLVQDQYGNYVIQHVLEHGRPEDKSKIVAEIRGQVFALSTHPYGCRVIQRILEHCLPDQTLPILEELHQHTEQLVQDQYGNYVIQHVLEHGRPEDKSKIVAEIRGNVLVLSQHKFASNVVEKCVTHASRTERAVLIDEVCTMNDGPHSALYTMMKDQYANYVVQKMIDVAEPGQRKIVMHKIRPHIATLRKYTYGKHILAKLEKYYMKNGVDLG
The experiment in a line: EMSA; greater than MT(R3→R5, R4→R6). The conditions noted are these: label: Alexa680 at 5' and 3'.

Changes are numbered by the printed parent chain.

For the molecule “CCAGAAUUGCACACAUAUUCG [OTS-2004 (Example 5-4)]”, in data set [1], the binding signal (fold of 13Y protein) is 0.33.
As for CCAGAAUUGUAUAUAUAUUCG [OTS-1844], the binding signal (fold of 13Y protein) in data set [2] is < 0.033.
In turn, “CCAGAAUUGUGUGUGUAUUCG [OTS-2004 (Example 5-6, GU repeat)]” yielded a binding signal (fold weaker than (R5:G 13R)3(R6:U 13Y)3) in data set [3] of 30.
For the molecule CCAGAAUUGUCUCUCUAUUCG [OTS-2006], in data set [4], the binding signal (fold of 13Y protein) amounted to 0.1.
With CCAGAAUUGGAGAGAUAUUCG [OTS-2008], in data set [5], the binding signal (fold of 13Y protein) was < 0.033.
“CCAGAAUUGUGUGUGUAUUCG [OTS-2004 (Example 5-6)]” registered a binding signal (fold of R6 13Y protein) in [6] of 3.
For the molecule CCAGAAUUGUCUCUCUAUUCG (ssRNA) [OTS-2006], in [7], the binding result is “binds”.
Consider CCAGAAUUCUAUAUAUUCG (ssRNA) [OTS-2033], for which the binding result is on record as “binds” in data set [8]; “no binding” with hPUF_MT(R3→R5, R4→R6) [9]; “no binding” in data set [10].
CCAGAAUUGUAUACAUUCG (ssRNA) [OTS-2025]: the values for the binding result in data set [11] and in data set [12] were “no binding” and “binds”, respectively.
For the molecule CCAGAAUUAUAUAUAUUCG (ssRNA) [OTS-1754], the binding result with hPUF_MT(R3→R5, R4→R6) [9] is “no binding”.
For CCAGAAUUGUAUAGAUUCG (ssRNA) [OTS-2024], the binding result in data set [11] is given as “binds”; in data set [12] it was “no binding”.
Consider CCAGAAUGGUAUAUAUUCG (ssRNA) [OTS-2034], for which the binding result is listed as “no binding” with hPUF_MT(R3→R5, R4→R6) [13] and “binds” in [14].
Take CCAGAAUUGCGCGCGUAUUCG (ssRNA) [OTS-2007]: the binding result in data set [15] is “binds”.
Consider CCAGAAUUGUAUAUAUAUAUUCG (ssRNA) [OTS-1924], for which, in data set [16], the binding result is “binds”.
Take CCAGAAUUGUAUAAAUUCG (ssRNA) [OTS-2023]: the binding result in data set [11] and in data set [12] was “no binding” in each case.
